{"source": "paper PMC10397247", "key": {"4H3939-AA": {"molecular_target": "T1, 4H3939-AA", "T1 chain": "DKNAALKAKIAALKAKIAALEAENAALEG", "experiment": "two-hybrid library CCmax;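 further: natural log of median RNA to DNA barcode read ratio; higher means stronger binding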"}, "4H3969-AA": {"molecular_target": "T2, 4H3969-AA", "T2 chain": "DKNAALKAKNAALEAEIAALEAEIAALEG", "experiment": "two-hybrid library CCmax", "details": "mean of both orientations"}, "4H428-AA": {"molecular_target": "T3, 4H428-AA", "T3 chain": "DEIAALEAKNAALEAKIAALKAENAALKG", "experiment": "two-hybrid library CCmax", "details": "mean of both orientations"}, "4H446-AA": {"molecular_target": "T4, 4H446-AA", "T4 chain": "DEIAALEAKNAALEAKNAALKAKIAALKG", "experiment": "two-hybrid library CCmax", "details": "mean of both orientations"}, "4H464-AA": {"molecular_target": "T5, 4H464-AA", "T5 chain": "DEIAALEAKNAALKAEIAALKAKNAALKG", "experiment": "two-hybrid library CCmax", "details": "mean of both orientations"}, "4H478-AA": {"molecular_target": "T6, 4H478-AA", "T6 chain": "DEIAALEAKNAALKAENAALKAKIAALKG", "experiment": "two-hybrid library CCmax", "details": "mean of both orientations"}, "4H483-AA": {"molecular_target": "T7, 4H483-AA", "T7 chain": "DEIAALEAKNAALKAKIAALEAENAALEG", "experiment": "two-hybrid library CCmax", "details": "mean of both orientations"}, "4H497-AA": {"molecular_target": "T8, 4H497-AA", "T8 chain": "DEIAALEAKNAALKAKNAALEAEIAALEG", "experiment": "two-hybrid library CCmax", "details": "mean of both orientations"}, "4H63-AA": {"molecular_target": "T9, 4H63-AA", "T9 chain": "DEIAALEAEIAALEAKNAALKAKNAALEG", "experiment": "two-hybrid library CCmax", "details": "mean of both orientations"}, "4H656-AA": {"molecular_target": "T10, 4H656-AA", "T10 chain": "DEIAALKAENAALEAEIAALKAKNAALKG", "experiment": "two-hybrid library CCmax", "details": "mean of both orientations"}, "4H675-AA": {"molecular_target": "T11, 4H675-AA", "T11 chain": "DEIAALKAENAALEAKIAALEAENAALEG", "experiment": "two-hybrid library CCmax", "details": "mean of both orientations"}, "4H971-AA": {"molecular_target": "T12, 4H971-AA", "T12 chain": "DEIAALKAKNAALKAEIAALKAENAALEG", "experiment": "two-hybrid library CCmax", "details": "mean of both orientations"}, "4H380-AA": {"molecular_target": "T13, 4H380-AA", "T13 chain": "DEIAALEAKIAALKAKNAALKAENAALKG", "experiment": "two-hybrid library CCmax"}, "4H3915-AA": {"molecular_target": "T14, 4H3915-AA", "T14 chain": "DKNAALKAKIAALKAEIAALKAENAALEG", "experiment": "two-hybrid library CCmax", "details": "mean of both orientations"}, "4H3974-AA": {"molecular_target": "T15, 4H3974-AA", "T15 chain": "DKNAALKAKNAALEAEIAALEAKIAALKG", "experiment": "two-hybrid library CCmax", "details": "mean of both orientations"}, "4H432-AA": {"molecular_target": "T16, 4H432-AA", "T16 chain": "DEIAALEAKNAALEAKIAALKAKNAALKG", "experiment": "two-hybrid library CCmax", "details": "mean of both orientations"}, "4H452-AA": {"molecular_target": "T17, 4H452-AA", "T17 chain": "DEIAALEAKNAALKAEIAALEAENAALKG", "experiment": "two-hybrid library CCmax"}, "4H56-AA": {"molecular_target": "T18, 4H56-AA", "T18 chain": "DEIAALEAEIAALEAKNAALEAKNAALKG", "experiment": "two-hybrid library CCmax"}, "4H_APH": {"molecular_target": "T19, 4H_APH", "T19 chain": "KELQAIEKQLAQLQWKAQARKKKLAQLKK", "experiment": "two-hybrid library CCmax"}, "4H_BCR": {"molecular_target": "T20, 4H_BCR", "T20 chain": "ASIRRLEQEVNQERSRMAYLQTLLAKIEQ", "experiment": "two-hybrid library CCmax", "details": "mean of both orientations"}, "4H_GCN4": {"molecular_target": "4H_GCN4", "sequence (chain, as listed by the source)": "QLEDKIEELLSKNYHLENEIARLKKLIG", "experiment": "two-hybrid library CCmax"}, "GCN2_T": {"molecular_target": "GCN2_T", "experiment": "two-hybrid library CCmax"}, "APC8401-AA": {"molecular_target": "T21, APC8401-AA", "T21 chain": "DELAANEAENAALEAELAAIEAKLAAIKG", "experiment": "two-hybrid library CCmax"}, "APC8516-AA": {"molecular_target": "T22, APC8516-AA", "T22 chain": "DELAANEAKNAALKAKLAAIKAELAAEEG", "experiment": "two-hybrid library CCmax", "details": "mean of both orientations"}, "APC9141-AA": {"molecular_target": "T23, APC9141-AA", "T23 chain": "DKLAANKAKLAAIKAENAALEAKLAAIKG", "experiment": "two-hybrid library CCmax", "details": "mean of both orientations"}, "APC9182-AA": {"molecular_target": "T24, APC9182-AA", "T24 chain": "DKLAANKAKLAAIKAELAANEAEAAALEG", "experiment": "two-hybrid library CCmax", "details": "mean of both orientations"}, "APC9291-AA": {"molecular_target": "T25, APC9291-AA", "T25 chain": "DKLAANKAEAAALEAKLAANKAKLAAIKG", "experiment": "two-hybrid library CCmax", "details": "mean of both orientations"}, "APC9806-AA": {"molecular_target": "T26, APC9806-AA", "T26 chain": "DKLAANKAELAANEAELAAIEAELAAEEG", "experiment": "two-hybrid library CCmax", "details": "mean of both orientations"}, "4H968-bH": {"molecular_target": "T27, 4H968-bH", "T27 chain": "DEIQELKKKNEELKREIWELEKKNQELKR", "experiment": "two-hybrid library CCNG1"}, "APC9319-AA": {"molecular_target": "T28, APC9319-AA", "T28 chain": "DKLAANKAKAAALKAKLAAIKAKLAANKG", "experiment": "two-hybrid library CCmax"}}, "note": "Read-outs that look alike come from different tables or passages of the source."}
{"binder": "DKNAALKAKIAALKAKIAALEAENAALEG", "note": "[4H3939-AA]", "values": [{"measurement": "interaction score", "setting": "4H3939-AA", "result": -1.07}, {"measurement": "interaction score", "setting": "4H3969-AA", "result": -0.371}, {"measurement": "interaction score", "setting": "4H428-AA", "result": -1.64}, {"measurement": "interaction score", "setting": "4H446-AA", "result": -0.459}, {"measurement": "interaction score", "setting": "4H464-AA", "result": -1.97}, {"measurement": "interaction score", "setting": "4H478-AA", "result": -1.63}, {"measurement": "interaction score", "setting": "4H483-AA", "result": -2.02}, {"measurement": "interaction score", "setting": "4H497-AA", "result": -1.92}, {"measurement": "interaction score", "setting": "4H63-AA", "result": 1.57}, {"measurement": "interaction score", "setting": "4H656-AA", "result": -0.924}, {"measurement": "interaction score", "setting": "4H675-AA", "result": -1.53}, {"measurement": "interaction score", "setting": "4H971-AA", "result": -1.81}]}
{"binder": "DEIAALEAKIAALKAKNAALKAENAALKG", "note": "[4H380-AA]", "values": [{"measurement": "interaction score", "setting": "4H380-AA", "result": -0.176}, {"measurement": "interaction score", "setting": "4H3915-AA", "result": 0.315}, {"measurement": "interaction score", "setting": "4H3939-AA; mean of both orientations", "result": 0.0894}, {"measurement": "interaction score", "setting": "4H3969-AA", "result": -1.28}, {"measurement": "interaction score", "setting": "4H3974-AA", "result": -0.717}, {"measurement": "interaction score", "setting": "4H432-AA", "result": -1.71}, {"measurement": "interaction score", "setting": "4H446-AA", "result": -1.43}, {"measurement": "interaction score", "setting": "4H464-AA", "result": -1.6}, {"measurement": "interaction score", "setting": "4H483-AA", "result": -1.15}, {"measurement": "interaction score", "setting": "4H63-AA", "result": -0.855}]}
{"binder": "DEIAALEAKNAALKAEIAALEAENAALKG", "note": "[4H452-AA]", "values": [{"measurement": "interaction score", "setting": "4H452-AA", "result": -0.395}, {"measurement": "interaction score", "setting": "4H56-AA; mean of both orientations", "result": -1.4}, {"measurement": "interaction score", "setting": "4H_APH", "result": -1.91}, {"measurement": "interaction score", "setting": "4H_BCR", "result": -1.94}, {"measurement": "interaction score", "setting": "4H_GCN4", "result": -0.935}, {"measurement": "interaction score", "setting": "GCN2_T", "result": -0.726}]}
{"binder": "DELAANEAENAALEAELAAIEAKLAAIKG", "note": "[APC8401-AA]", "values": [{"measurement": "interaction score", "setting": "APC8401-AA", "result": -1.51}, {"measurement": "interaction score", "setting": "APC8516-AA", "result": -1.57}, {"measurement": "interaction score", "setting": "APC9141-AA", "result": -1.49}, {"measurement": "interaction score", "setting": "APC9182-AA", "result": -1.43}, {"measurement": "interaction score", "setting": "APC9291-AA", "result": -1.42}, {"measurement": "interaction score", "setting": "APC9806-AA", "result": -1.46}]}
{"binder": "DEIQELKKKNEELKREIWELEKKNQELKR", "note": "[4H968-bH]", "values": [{"measurement": "interaction score", "setting": "4H968-bH", "result": 0.196}]}
{"binder": "DEIAALEAEIAALEAKNAALEAKNAALKG", "note": "[4H56-AA]", "values": [{"measurement": "interaction score", "setting": "4H56-AA", "result": -0.981}, {"measurement": "interaction score", "setting": "4H_APH; mean of both orientations", "result": -1.29}, {"measurement": "interaction score", "setting": "4H_BCR", "result": -1.53}, {"measurement": "interaction score", "setting": "4H_GCN4", "result": -1.92}, {"measurement": "interaction score", "setting": "GCN2_T", "result": -1.38}]}
{"binder": "DKLAANKAKAAALKAKLAAIKAKLAANKG", "note": "[APC9319-AA]", "values": [{"measurement": "interaction score", "setting": "APC9319-AA", "result": -1.58}]}
